The DeepSol protein solubility set

experiment: soluble on expression in E. coli; label from the status in PepcDB or PDB records

Row | Sequence | soluble on expression in E. coli
1 | GPGSMVSTRETLSVEEQRYLDQELPPRELLTSLRSRDRSPTDDNETDVTVPGDSFGIMRNRVAFYKPVPRDVYSGELGECFPEGCHPLRCVNPATLHHLSERFGVSIREAVKAMQNAQMDINIAIDELCRRKCIDPPAGSFGLVGLESYASETFCLVNFTLPSLEATRDDDVLDALHELTLSAAEIPLDTPTEDLVDKFVNNWTVEDGRSCKDVLDMYDLGVNKIVLLPHGDYSVEGFYVLHPVKEDTPNIGTGAAACCLDLRTGIHNRFRFHVERIADSVSEHVIRELVHYGQDVHVLRQAYWFKPEYSVEEYIRFKESLLQPSASVFEMRYAVLAVGSYALPGYRNLVEMEKLKVAQHKYEKHYEDFMSPGKWLTSDNSQLQTVAAGGGNAPGAALHMHTNGPDVALNAMETRAGPLRRTLETSIQAHGDRVFSRFYRNNHH | not soluble
2 | MSLIRIGHGFDVHAFGEDRPLIIGGVEVPYHTGFIAHSDGDVALHALTDAILGAAALGDIGKLFPDTDMQYKNADSRGLLREAFRQVQEKGYKIGNVDITIIAQAPKMRPHIDAMRAKIAEDLQCDIEQVNVKATTTEKLGFTGRQEGIACEAVALLIRQEGGSHHHHHH | soluble
3 | MSLDNVIDEVVWVIGDEAILKSDVEEARLAALYEGRKFDGDPYCVIPEELAVQKLYMHQAVLDSIEVPEAEVIQRVDYQISNYIQALGSRERMEAEFNKTSTQIREAMRENARDGLIVQRMQQKLVGDIKVTPAEVRRYFKELPQDSIPYVPTQVEVQIITQQPKIPVAEIEDVKRRLREYTDRINKGESDFSTLALLYSEDRGSAIKGGETGFMGKGQMVPEYANVAFNLQDTKKISKIVESEYGFHIIQLIEKRGDRINTRHILLKPKVSDKELDEANARLDSIANDIRSDKFTFDQAASALSQDKDTRNNHGLMQNPQNQTAKFEMQDLPQEIAKVVDKMNIGEISKAFTMVNPKDGKEVCAIVKLKSRINGHKATITDDYQNLKEIVLDKRREEALQKWIVEKQKHTYVRINPAWQRCDFKYPGWIKKEGHHHHHH | soluble
4 | MLIKQTDYFRIYRVINSLLISQNADPASASMYFSTFGAFILQQHYKVKAVPKGGLAAYNLGGTVLLFADHREDGYVTGAGENFHCWVEADGWAIDFMAPAFSEGTDALAVPAKMFQRPLSAMAASINDLGQSGDFFYRSEPEATARRFADWHKQAMIGDMASVAANWFRKSPKQMAASLSVTDRDGKARTVPLTGEMLTGAW | soluble
5 | MEEPMEVDNKRPKVLTWTEKYRPKTLDDIAYQDEVVTMLKGALQGRDLPHLLFYGPPGTGKTSAALAFCRQLFPKNIFHDRVLDLNASDERGIAVVRQKIQSFSKSSLGHSHREDVLKLKIIILDEVDAMTREAQAAMRRVIEDFSKTTRFILICNYVSRLIPPVVSRCAKFRFKSLPAEIQVQRLRTICDAEGTPMSDDELKQVMEYSEGDLRRAVCTLQSLAPILKSGDDNARNCYLRGSSDSLLISNVCKSILTADVPQIIALTKDITKSCTGVAFIRRCFQQLMDEDVINDENIGVMGKLVATCEKRILDGCDLENNLLDFLLTLRETIQ | not soluble
6 | MAPSMIPFTIKLKTCLKMCIQRLRYAQEKQQAIAKQSRRQVAQLLLTNKEQKAHYRVETLIHDDIHIELLEILELYCELLLARVQVINDISTEEQLVKEHMDDGINEAIRSLIYAILFVDEVKELSQLKDLMAWKINVEFVNGVIADHIDVPEKIIKKCSPSVPKEELVDLYLKEIAKTYDVPYSKLENSLSS | soluble
7 | MQQQKTVQPEAKQKVEVGVLAIRGHLYAEQRWQPTIDWLNQQISDVHFELHPLNLDEMGEAVKFQTMDFILTNPGQAVRLGRQYALSWMATLTGRAPQNSNYSIGSALVVRANSPYQTLKDVSGFPVAAVSEKAFGGYLTLRYQIVEMGLDPNDFFADVRYLGFPIDANLYQLRDGNVEAAVVPACLLEQMQNEGLLQHGDFRVLNQQPNEHSSCAVSTPLYPNWSFAKTERGSSLLAKKIAQVLLAMPPEHP | not soluble
8 | MGSDKIHHHHHHMKIVVTKFGGSSLADSNQFKKVKGIIDSDANRKYIIPSAPGKRTNKDYKITDLLYLCNAHVKNGIPFDDVFKLISQRYTEIVSELNIDMDIAYYLEKVKKNIENGASSDYAASRGEYLNGVILAKYLNAEFIDAAEVIFFDKSGCFDEKKSYEKIKEKVLSCNKAVIPGFYGSSFNGDVKTFSRGGSDVTGSIISAGVNADLYENWTDVSGFLMADPRIVENPKTISKISYKELRELSYMGATVLHEEAIFPVKDSGIPINIKNTNKPSDPGTLILSDTHKEINLGTITGIAGKKNFTVIAIEKALLNSEVGFCRKILSILEMYGVSFEHMPSGVDSVSLVIEDCKLDGKCDKIIEEIKKQCNPDSIEIHPNMALVATVGTGMAKTKGIANKIFTALSKENVNIRMIDQGSSEINVIVGVETVDFEKAVKSIYNAFN | not soluble
9 | MGSDKIHHHHHHCSCNDLLDEKAYDFVSPEQLGDSESAASQLVTGAYNTVITSFIAPGSYLYLTNMDCDYASGASWAFGNVGAGNPQGFWGIDHMWQGSYTLIHRANLGISKISAMSNLSQESKQDALAQLCFLKAWAYFNLVRNYGPVPIFRKSISEGEAMSQPRASVSDVYAHIIELLEQAEGMYSKDDAGFVVGHASNGAAKALLAKVYVTMASGAMSGVPIVVKGGNPNIFEPQPITHIAKTVAGYESFDPAKYYALARDKAWEVINEYTLFDNYMDVWAIGNRNKGEHIWMAQAISGDKDFGNTICQDYVGIFKEDGTMEGNWYGMRDHWYLLFEEQDKRIVDGVIHRYASDGISNGKVIYNYYPRWYADKVENKEVYDSQGNAFDGTEVYHEGQGWTLAKLTKFTFVTDRKQKNSDFHFPLLRLPDIMLIYAEAVNELNGGPDAEAYNQVNRIRTRAHATPFSGMNQDEFRSAVLEERARELAYEADRRYDLFRWGIYLDVMNAIDMDEHNVTKRRLERNLLYPIPTSEVNSNDKIDSNNPGW | not soluble
10 | MAHHHHHHMFFCPFCSTLLLVVPHVEGNALVCATCRYVHSVASASPQVPRNAFGEPILTIQHSFVAHNRQLMDAEEDPAMEAAASSSAAACHTTAAFTPVVKAETSAEGGQITTIPCQNEDNPCQSTKAYFIQIQMRSADEPATVFFKCVECGHQWRQD | not soluble
11 | MAVKVAINGFGRIGRLAFRRIQEVEGLEVVAVNDLTDDDMLAHLLKYDTMQGRFTGEVEVVDGGFRVNGKEVKSFSEPDASKLPWKDLNIDVVLECTGFYTDKDKAQAHIEAGAKKVLISAPATGDLKTIVFNTNHQELDGSETVVSGASSTTNSLAPVAKVLNDDFGLVEGLMTTIHAYTGDQNTQDAPHRKGDKRRARAAAENIIPNSTGAAKAIGKVIPEIDGKLDGGAQRVPVATGSLTELTVVLEKQDVTVEQVNEAMKNASNESFGYTEDEIVSSDVVGMTYGSLFDATQTRVMSVGDRQLVKVAAWYDNEMSYTAQLVRTLAYLAELSK | soluble
12 | MTELHGECMCGAVTITATPARAALGACHCDMCRRWTSSAYVSFPVEPGYAALGPVKVYGSSDWAERAFCGTCGSVLWYRITLPGKMHGQTQMAAGLFENAGGNALKLELYIDKKPEGYAFAGERRQMTQAEVEAMYAPSDLGDSQ | not soluble
13 | MAVLSFSFGGEITLKKPPESLKKYYPPASEKFEFLNNMHTMSTAFYAVQLNINDENWEKAKEWAQKLVKTYRETAEMVPEWKDYFDFSKADAYLNAVSSKNVDAVIKTARELGQTCAKCHRDNEVAVKIYYHFPDFHSVKVEDPIEFMEMDLGDFMKKLANSLKATNIYISQGEYEKAKEHGINFVERARAVKETCTKCHTKEAEVEAITGKEYDQALKALENLFNAEKLDTQKVAQNMKKVTVTCYTCHNVHLIPAKIKEALAK | not soluble
14 | MKQYFYERECQNPELREQSLLERLPSFITYAKQECQHYGQILQHIDADKITSRELLAQLPITRKSDLMKLQAKNSPLGGLNANKANIGRIFQSPGPIYDPENTSDDWWRLGQAFYAAGFRAGDIVQNCLSYHLTPGGFILDSGARACGCVVIPAGPGQTEQQLDIIEHLKPQGYSGTPSFLKILLDKAKAENRDISSVTKALVTGEALPKGLRAEFDAAGINTLQAYASADVGLIGFESKSDDGFIIAEDLLVEIVRPGTLEPVADGEIGEVVVTSFNVDYPLIRFATGDLSAVKSSESACGRTNMCIKGWLGRADQTTKIKGMFVHAEQIEQVRQAYPHIAKMRLSVTQVNYNDQMNLQCELDSSGYSEADIAGAIENISSSLKKTTKLNGAVELVAVGTLADDGKVIDDLRPIG | not soluble
15 | MSLDRVYHEFGATLRQLYQQDTPIIALCAAGIVIRTLAPLLLEKGAEPPVLAVAEDGSAVVPLLGGLGGVNVMAREIAAGLGVAAAITTSGELRFGTCLLNPPSGYALGDLELGKRFVSDLLGGESVRIEGAAPWLAAAKLPENDQARLTIRVGSAEREPVANELLIYPRSVLVACRGQRLAGEADSDLATHIRQALHQARIAVQSVACLLAADRDMADRALHQAAAQLGVPLRFLPAADSVAELAQQAVPQLLPPLKVGEDIAIAVASQPLDPEQIGRPREGHHHHHH | not soluble
16 | MPFLPPLTPPTELYVGIQLPNPISILVNYLPVRQTPIETLRNLVYSCDINTLAIDEFMTWPSLLQPESTFRPYFELLVERGSLKVFAKRATS | not soluble
17 | MAIGGWIKLYRTIQDHWIWENPQYLKWWLDLIFMANHQDRKILFDGELKTVKVGERITSEKKLSERWEVSRNTVRKFLDLLVKDDMIELSRSRQNGTWYKVSNYAEYQNFSEIKKQRTEQRREQQAAHQTEQRTEHKQEPKEPKNLRNNNNNNKGAFIRSIWENNGFGLMSSKTMTDFDYWISDFEKIGASQKEAEQLIVKAIEIAIDANARNYNYINAILKDWEQRGFKSVEEREAARKQKKTTKKQKSNTGHSDYDDLGF | not soluble
18 | MKKYTLIATAPMGIEAVVAKEVRDLGYECKVDNGKVIFEGDALAICRANLWLRTADRIKVQVASFKAKTFDELFEKTKAINWRSFIPENGKFPVIGKSVKSTLASVPDCQRIVKKAIVEKLKLQSGKANDWIEETGAEYKVEISLLKDQALITLDSSGTGLHKRGYRVDQGGAPIKETLAAALVQLTNWTPDRPFVDPFCGSGTIAIEAALIGQNIAPGFNRDFVSEDWEWIGKDLWNKARLEVEEKANYDQPLTIFASDIDHRMVQIAKENAEEAGLGDLIQFKQMQVKDFTTNLEFGVIVGNPPYGERLGEKKAVEQMYKEMGQAFEPLDTWSVYMLTSNENFEEAYGRKATKKRKLFNGFIKTDYYQYWSKVRPQRKKTENA | not soluble
19 | MAHHHHHHMHSVVPMSSYIHPTQVSIGAAPRMAVQEMHPDAKRKGRRVVATMELKPGNAIFAAPPDIAVLYSPFARHICARCLVADVRACAEPLKAHHHHHQHPHQQPHATLSRSPVGASSSPSSLSSSTAAPAAAPVRPYCCPNCDQFVLCAPCVAQLLLDSGVDVTSAAGTDAVQTTAPLLQRRGEGKRGVSVVDERLHLHPLLRAHAISCAWYTSLPASIRAPGNDTDFLRFCLDYGARAYLGDTAMMRALATLDTNASVQSKESMQLCEVFARDRVVATFGKEPKAVTATTLATAASAKHMGIDPLSNQAGTHASGGIHRGGNSDGVRCRGSAAVSPFPPRYPISWTDLRDTLLRTRCNSIGFPYNTEETTGWSLHQTVCMLNHSCVPNAAVIMLYDSADAMAAAAALAARTGASHTAPPKERTQEAARRKASERIAAFRAVATSSESPYSTSYSPSLAGWIGIEATRPIAAGEEITISYVDLGSLGDDLQTRSRHLLEQYRFLCTCELCMRQRSLKR | not soluble
20 | MEKPVFYLDRVGEENTEAVIGAAAKRAAELGISHIVVASTSGKTALKMAEAVKGSNIKVIGVSHQYGQKEKGEWEVGEEYRKKLEELGAVITTQSHMFSGIERSITKKFGGYSRIEVISDTLRSLFGKGFKVAIEVAIMAADSGHIPVSDDTEIIAIGGTRWGADVALVLRPAHSNDFFSLQVREIIAMPRAKEDLEHHHHHH | soluble
